Measured values from patent publication US20220017618A1 (JIANGSU HENGRUI MEDICINE, published 2022).

Key:
[1] = biological target: T1, TIM-3 extracellular region with Flag and His tags: TIM-3-Flag-His (human); experiment: TIM-3 binding ELISA, hybridoma screening (clones positive for protein binding)
T1 construct: The template is UniProt Q8TDQ0 (printed); also called human TIM-3; HAVCR2

[2] = biological target: T2, Full-length TIM-3 (TIM-3-full length) on TIM-3-overexpressing cells (human, UniProt Q8TDQ0 22-301); experiment: binding to TIM-3-overexpressing cells, hybridoma screening (clones positive for cell binding)
T2 construct: It was used to construct the TIM-3-overexpressing cell lines; The template is UniProt Q8TDQ0 (printed); also called human TIM-3; HAVCR2

B1: mAb-1799 (antibody, V domains shown)
VH: EVKLVESEGGLVQPGSSMKLSCTASGFTFSDYYMAWVRQVPEKGLEWVANINYDGSSTYYLDSLKSRFIISRDNAKNILYLQMNSLKSDDTATYYCARDVGYYGGNYGFAYWGQGTLVTVSA
VL: DIQMTQSPASLSASVGETVTITCRASDNIYSYLAWYQQKQGKSPQLLVYNAKTLAEGVPSRFSGSGSGTQFSLKINSLQPEDFGSYYCQQHYGSPLTFGAGTKLELK
notes: Murine antibody secreted by a hybridoma
Q: Does B1 bind [1]?
A: binds

Q: Does B1 bind [2]?
A: binds
